Assay [1] addresses T1, recombinant human CD74 (C27S) (human, UniProt P04233 1-216).
T1 chain: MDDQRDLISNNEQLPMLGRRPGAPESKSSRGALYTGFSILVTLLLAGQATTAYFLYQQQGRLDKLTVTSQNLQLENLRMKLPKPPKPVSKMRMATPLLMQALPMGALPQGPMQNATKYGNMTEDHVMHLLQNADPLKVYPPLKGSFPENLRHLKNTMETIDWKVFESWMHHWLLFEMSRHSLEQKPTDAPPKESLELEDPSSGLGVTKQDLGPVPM
Briefly: competition ELISA against MIF for rhCD74.

In assay [2] the target is T1, recombinant human CD74 (C27S). Briefly: direct binding ELISA, rhCD74 (C27S) coated, construct detected with anti-MOG antibody, one-site fit.
Assay [3] has the same target. In words: direct binding ELISA on rhCD74 (legend of FIG. 6A).
The target is the same in assay [4]. In words: competition ELISA: MIF coated, rhCD74 with serially diluted construct, bound rhCD74 detected.
In another assay the target is T2, mouse CD74 (mouse, UniProt P04441-2 1-215, limits assumed).
T2 construct: Native protein pulled down from splenocyte lysate; also called mCD74; immunoprecipitated mouse CD74
T2 sequence (looked up): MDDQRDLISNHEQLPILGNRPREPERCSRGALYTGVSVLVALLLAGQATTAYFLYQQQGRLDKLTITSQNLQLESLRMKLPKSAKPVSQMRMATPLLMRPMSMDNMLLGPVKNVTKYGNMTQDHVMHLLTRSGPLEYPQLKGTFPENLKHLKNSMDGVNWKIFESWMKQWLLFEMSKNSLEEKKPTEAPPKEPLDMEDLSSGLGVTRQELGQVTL
In words: competition with FITC-labelled P2 peptide on immunoprecipitated mouse CD74, gel densitometry, one-site fit. As for the experimental part:
For competition experiments, ELISA plates were coated with MIF at room temperature at a concentration of 0.5 μg/ml in TBS. Plates were then blocked overnight with 5% BSA in TBS and 0.0125% T20 followed by the addition of a competitive mix containing rhCD74 with serially diluted DRα1 constructs prepared in 5% BSA/TBS plus 0.0125% T20 for 1.5 hours at 25° C. Bound rhCD74 was detected with a monoclonal antibody that specifically recognizes human CD74 in a region away from the putative MIF/D-DT binding site. Absorbance at 450 nm was determined and data were analyzed with Prism, the parameters were calculated with the competition equation included in the software. For competition between DRα1-hMOG-35-55 and P2 peptide (see next section), mouse CD74 was immunoprecipitated from DR*1501 Tg mouse splenocytes and a competition experiment was set. 2.5 μl of P2 peptide were used with increasing concentrations of DRα1-hMOG-35-55 protein. Bound peptide was eluted from the immunoprecipitation with 2% SDS and analyzed in a 16.5% PAG Tris/Tricine. The gel was scanned for FITC and fluorescence was quantified by densitometry. P2 fluorescence vs. DRα1 competitor was plotted and data analyzed with Prism. The relative density values were fit to a One-binding site equation. […]

B1: DRhQ (other)
chain: MEVGWYRPPFSRVVHLYRNGKGGGGSLVPRGSGGGGIKEEHVIIQAEFYQNPDQSGEFMFDFDGDEIFHVDMAKKETVWRLEEFGRFASFEAQGALANIAVDKANLEIMTKRSNYTPITN
notes: Made in E. coli; also called DRα1-hMOG-35-55 with glutamine substitution; L50Q
Turning to B1, the IC50 in assay [1] worked out at 280 nM; in assay [4] it was 298 nM. The values for the Kd in assay [2] and in assay [3] were 91.1 nM and 89 nM, respectively.

B2: DRα1-mMOG-35-55 (other)
chain: MEVGWYRSPFSRVVHLYRNGKGGGGSLVPRGSGGGGIKEEHVIIQAEFYLNPDQSGEFMFDFDGDEIFHVDMAKKETVWRLEEFGRFASFEAQGALANIAVDKANLEIMTKRSNYTPITN
notes: also called DRα1 with mouse MOG-35-55 peptide
Take B2: the IC50 in assay [4] stood at 937 nM.

B3: DRmQ (other)
chain: MEVGWYRSPFSRVVHLYRNGKGGGGSLVPRGSGGGGIKEEHVIIQAEFYQNPDQSGEFMFDFDGDEIFHVDMAKKETVWRLEEFGRFASFEAQGALANIAVDKANLEIMTKRSNYTPITN
notes: also called DRα1-mMOG-35-55 with glutamine substitution
As to B3, the IC50 in assay [4] is 828 nM.

B4: DRα1-hMOG-35-55 (other)
chain: MEVGWYRPPFSRVVHLYRNGKGGGGSLVPRGSGGGGIKEEHVIIQAEFYLNPDQSGEFMFDFDGDEIFHVDMAKKETVWRLEEFGRFASFEAQGALANIAVDKANLEIMTKRSNYTPITN
notes: also called DRα1-human(h)MOG-35-55; DRα1 with human MOG-35-55 peptide
Regarding B4, the IC50 in assay [1] was 1600 nM; in assay [4], 1640 nM. Besides, the Kd was found to be 702 nM in assay [2], 650 nM in assay [3] and 750 nM in the assay with mouse CD74.

Values taken from US20210380660A1 (OREGON HEALTH AND SCIENCE UNIVERSITY, published 2021).
